Results reported in patent US20230220062A1 (Eli Lilly, published 2023).

T1: recombinant human IL-19 (human, UniProt Q9UHD0 25-177)
T1 construct: also called human IL-19 recombinant protein; interleukin-19
T1 sequence: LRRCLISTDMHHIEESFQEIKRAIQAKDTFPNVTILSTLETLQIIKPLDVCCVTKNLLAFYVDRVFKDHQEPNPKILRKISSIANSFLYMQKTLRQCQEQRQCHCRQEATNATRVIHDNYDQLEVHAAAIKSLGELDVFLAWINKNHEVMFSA


Tests used:
recombinant human IL-19 [1] = target: T1, recombinant human IL-19; assay: BLI (Octet Red96), antibody on AMQ biosensor, IL-19 in solution, 25 C, 1:1 fit
Description: Except as noted, all reagents and materials are from ForteBio (Freemont, Calif.). An AMQ biosensor is used to immobilize antibody of interest for analysis.
Binding data is processed using standard double-referencing and fit to a 1:1 binding model using Data Analysis v9.0 evaluation software, to determine the association rate (kₒₙ, M⁻¹ s⁻¹ units), dissociation rate (koff, s⁻¹ units), and Rₘₐₓ (nm units). The equilibrium dissociation constant (KD) was calculated from the relationship KD=koff/kₒₙ, and is in molar units.

recombinant human IL-19 [2] = target: T1, recombinant human IL-19; assay: BLI; immobilized antibody loaded with 100 nM human IL-19, then competitor human IL-20R beta Fc-fusion added; the response is that of the receptor-Fc step
Excerpt: Binding between a ligand immobilized on the biosensor tip surface and an analyte in solution produces an increase in optical thickness at the biosensor tip, which results in a wavelength shift (expressed in nm).

Row | Binder | Kd (recombinant human IL-19 [1]) [nM] | koff (recombinant human IL-19 [1]) [s⁻¹] | kon (recombinant human IL-19 [1]) [M⁻¹ s⁻¹] | IL-20R beta Fc protein binding response (nm) (recombinant human IL-19 [2])
1 | murine derived IL-19 Ab 2 (M_2) (antibody, mouse IgG1, kappa, V domains shown) VH: LVQLQQSDAELVKPGASLKISCKVSGYTFTDHALHWMKQRPEQGLEWIGYIYPRDGSTKYNEKFKGKATLTADRSSSTAYMELNSLTSEDSAVYFCARGWDFAMDYWGQGTSVTVSS VL: DIVLTQSPESLAVSLGQRATISCRASESVDNYGISFIHWYQQKPGQPPKLLIYRASNLKSGIPARFSGRGSRTDFTLTINPVETDDVATYYCQQINKDPLTFGAGTKLELKR | 2.9 | 0.000185 | 63700 | 0.361
2 | rabbit derived IL-19 Ab 1 (R_1) (antibody, V domains shown) VH: QQLEESGGGLVQPEGSLTLTCTASGFSFSSSYWICWVRQAPGKGLEWLACIDTGVSGDTYYANWAEGRFTISKTSSTTVTLQMTSLTAADTATYFCARDIFGSAIDNSLWGPGTLVTVSS VL: AIDMTQTPASVSEPVGGTVTIKCQASQSISSYLAWYQQKPGQPPKLLIYSASTLASGVPSRFRGSGSGREFTLTISDLECADAATYYCQCHYHGSSYWDNSFGGGTEVVVK | 0.311 | 1.04e-05 | 33300 | –
3 | rabbit derived IL-19 Ab 2 (R_2) (antibody, V domains shown) VH: QQLEESGGGLVQPEGSLTLTCTASGFSFSSSYWICWVRQAPGKGLEWLACIDTGVSGDTYYANWAKGRFTISKTSSTTVTLQMTSLTAADTATYFCARDIFGSAIDNSLWGPGTLVTVSS VL: DVVMTQTPASVEAAVGGTVTIKCQASESIGNALAWYQQKPGQPPKLLIYDASKLASGVPSRFKGSGSGTQFTLTISDLECADAATYYCQCHYHGSSYWDNSFGGGTEVVVK | 0.103 | 4.42e-05 | 428000 | –
4 | murine derived IL-19 Ab 3 (M_3) (antibody, mouse IgG1, kappa, V domains shown) VH: QIQLVQSGPELKKPGETVKISCKASGYTFTTYGMSWVKQAPGKGLKWMVWINTYSGVPTYVDDFKGRFAFSLETSASTAYLQINNLKNEDTATYFCARRDEGFAYWGQGTLVTVSA VL: DIKMTQSPSSMYASLGERVTITCKASQDINSYLSWFQQKPGKSPKTLIYRANRLVDGVPSRFSGSGSGQDYSLTISSLEYEDMGIYFCLQYDDFPYTFGGGTKLEIKR | – | – | – | 0.354
5 | rabbit derived IL-19 antibody R_4 (antibody, V domains shown) VH: CQSVEESGGRLVTPGTPLTLTCTVSGIDLSIYAMGWVRQAPGKGLEYIGIIDTTGTAYYARWAKGRFTISKTSATVALKITSPTTEDTATYFCARDSGSLYYGSYALWGPGTLVTVSS VL: DVVMTQTPSSVSEPVGGTVTIKCQASQSIYSYLSWYQQKPGQPPKLLIYEASKLASGVPSRFKGSGSGTQFTLTISGVECADAATYYCQQGYSSSNVDNTFGGGTEVVVT | 8.52 | 0.0013 | 152000 | –
6 | rabbit derived IL-19 Ab 39 (R_39) (antibody, V domains shown) VH: QEQLKESGGGLVQPGGSLKLSCKASGFDLSSYGVSWVRQAPGKGLEWIGYIDPVFGSTYYANWVNGRFTISSDNAQNTLYLQLNSLTAADTATYFCARGSGYVYYGYTYDLWGPGTLVTVSS VL: DIVMTQTPASVEAAVGGTVTIKCQASQSIYRYLSWYQQKPGQRPKLLIYGASNLASGVSSRFKGSGSGTEFTLTISDLECADAATYYCQSYYYSSSSGYGNVFGGGTEVVVKG | 170 | 0.0348 | 206000 | -0.0421

Second part, the binder after the results:

Row | Kd (recombinant human IL-19 [1]) [nM] | koff (recombinant human IL-19 [1]) [s⁻¹] | kon (recombinant human IL-19 [1]) [M⁻¹ s⁻¹] | IL-20R beta Fc protein binding response (nm) (recombinant human IL-19 [2]) | Binder
7 | 0.0576 | 6.32e-05 | 1.1e+06 | -0.0075 | murine derived IL-19 Ab 1 (M_1) (antibody, mouse IgG1, kappa, V domains shown) VH: EVQLQQSGPVLVKPGASVKMSCKASGYKFTDYFVGWVKQSHGKSLEWIGYVDPENGYTRCNQKFKGKATLTVDKSSSTAYMELNSLTSEDSAVYYCARYDYDWAWFTNWGQGTLVTVSA VL: DIVMTQSPSSLAMSVGQKVTMSCKSSQSLLSSYNQKNYLAWYQQKPGQSPKLLVYFASTRPPGVPDRFIGSGSGSDFTLTISSVQAEDLADYFCQQHERLPITFGAGTKLELKR
8 | 0.0521 | 3.58e-05 | 688000 | -0.0124 | murine derived IL-19 Ab 5 (M_5) (antibody, mouse IgG1, kappa, V domains shown) VH: EVQLQQSGPVLVKPGASVKMSCKASGYPFNDYFLGWVKQSHGKSLEWIGSINPDNDYTMSNQKFKGKATLTVDKSSSTAYMELNSLTSEDSAVYYCARYDYDWAWFAHWGQGTLVTVSA VL: DIVMTQSPSSLAMSVGQKVTMSCKSSQSLLSSYNQKNYLAWYQRKPGQSPKLLVYFASQRATGVPDRFIGSGSGSDFTLTISSVQAEDLADYFCQQHTRLPITFGAGTKLELKR
9 | < 0.001 | < 1e-07 | 391000 | – | rabbit derived IL-19 antibody R_3 (antibody, V domains shown) VH: CQSLEESGGGLVEPEGSLTLTCKASGFSFSSSYWICWVRQAPGKGLEWIACTDTFSGDTYYASWAKGRFTISKTSSTTVTLRMTSLTDADTATYFCARDIFGTAVHISLWGPGTLVTVSS VL: DVVMTQTPSSVEAAVGGTVTIKCQASQSIGSSLAWYQQKPGQRPKLLIYGASTLASGVPSRFKGSGSGTEFTLTISDLECADAATYYCQCHYHGSSYWDNSFGGGTEVVVK
